“Also recorded” adds a separate entry of the source. Where a name gives a salt, the structure may show the parent alone. Bridges are numbered along the chain shown (N, C = ends). Where no end group is shown, it is not given here.
Tests used:
thrombin [1] = biological target: T1, thrombin (Homo sapiens, UniProt P00734); assay: Thrombin stability testing: remaining clotting activity of 1000 IU/ml liquid thrombin after storage at 37° C.; format: biochemical; settings: for stabilization of thrombin activity (in words): 0.5 mM peptide, 1000 IU/ml thrombin, 37° C., 0, 3 and 7 days; for maintaining thrombin activity compared with 0.5 mM gamma loop peptide (in words): 3% (w/v) arginine
T1 construct: yields the active alpha thrombin molecule which is a 295 amino acid polypeptide (human) composed of a heavy and light chain
Method: Aqueous liquid thrombin, in its purified and concentrated form 1000 international units IU/ml may undergo autolysis at room temperature causing a significant loss of activity e.g. towards a heterologous substrate. E.g. thrombin activity towards a heterologous substrate is reduced when a liquid thrombin formulation is incubated at room temperature for prolonged periods of time (e.g. 72 to 144 hours), inter alia, due to autolytic degradation. The decrease of thrombin activity towards a heterologous substrate in aqueous liquid solution can be assessed by measuring thrombin activity after prolonged periods of time and under permissive temperature (e.g. 37° C.). In the following experiments, the effect of a peptide on the stability of thrombin was studied under different conditions.
Aqueous liquid purified and concentrated thrombin (1000 IU/ml; equivalent to about 10 μM) was aliquoted and placed in a 37° C. incubator for 3 days (72 hours), 7 days (168 hours) and 14 days (336 hours). Prior to incubation, thrombin samples were spiked with indicated amounts of different tested peptides or with a control thrombin inhibitor: benzamidine or arginine *HCl (“arginine”). Specific peptides, their concentrations, and thrombin inhibitors used are indicated in each Example. Following the incubation period, the samples were frozen at −80° C. until testing the thrombin activity. Just before thrombin activity assay testing, all the samples were thawed and 100-fold diluted into a dilution buffer (0.4% tri-sodium citrate di-hydrate, 0.9% sodium chloride and 1% BSA, pH=7.5) to bring the thrombin concentration in the sample to that within the specifications of the assay (4-10 IU/ml) and to dilute the tested peptides in the sample to a negligible concentration.
(§1) Thrombin activity was assessed by clotting time measurements using STart4 Coagulation Instrument (DIAGNOSTICA STAGO™, Asnieres sur Seine, France). The assay is a modification of the European Pharmacopoeia Assay procedure, 1997, 0903, p. 858. Briefly, a calibration curve was prepared by mixing thrombin standard with a fibrinogen solution of 0.1% fibrinogen content (Enzyme Research Laboratories, Ind., USA). Thrombin concentration in the different tested samples was then calculated from the calibration curve by their clotting time (the concentration was extrapolated from the calibration curve).
For stability testing of 1000IU/ml thrombin following storage with or without peptides, testing was carried out as described above. Dilutions (1:100) were carried out before measuring the activity.
All of these peptides (“mutant gamma loop peptides” identified in Example 3, random peptides, thrombin derived peptides, and “gamma loop binding peptides” mentioned above) were tested for their ability to stabilize thrombin activity at a concentration of 0.5 mM as described in Example 2.

gamma loop of thrombin = biological target: T2, gamma loop of thrombin (Homo sapiens, UniProt P00734); assay: Peptide microarray binding screen with fluorescent gamma loop peptide; settings: scale 0-65535
T2 construct: Fluorescein-labeled cyclic gamma-loop derived peptide; made in house; host or cells: chemical synthesis
Method: Based on the results disclosed in Example 2, the gamma loop peptide was used as a bait to find additional peptides which may positively affect the stability of thrombin. For this purpose, a binding screen was carried out using a fluorescent gamma loop peptide incubated with several peptide arrays.
(§2) A library of 1,676 15-meric peptides spanning the sequences of proteins interacting with the gamma loop of thrombin such as thrombin itself, anti-thrombin III (ATIII), thrombomodulin, heparin cofactor II, bovine pancreatic trypsin inhibitor (BPTI), and hirudin, and modifications of the thrombin gamma loop sequence were generated. Peptides were synthesized using SPOT synthesis (Wenschuh H, et al. (2000). Coherent membrane supports for parallel microsynthesis and screening of bioactive peptides. Biopolymers 55:188-206) and were chemoselectively immobilized onto functionalized glass slides as described (Panse S, et al. (2004) Profiling of generic anti-phosphopeptide antibodies and kinases with peptide microarrays using radioactive and fluorescence-based assays. Mol Divers 8:291-299.2.). Each peptide was printed in triplicates onto the microarray. For binding studies, 100 μg of purified thrombin (Omrix biopharmaceuticals) were directly labeled with DYLIGHT® 650 Microscale Antibody Labeling Kits, THERMO SCIENTIFIC™ (#84536) and diluted in blocking buffer SUPERBLOKTM T20 (TBS) Blocking Buffer, THERMO SCIENTIFICTM (#37536). The microarrays were incubated with 10 μg/ml DYLIGHT® 650-Thrombin or a Fluorescein-labeled cyclic gamma-loop derived peptide for one hour at 30° C. in a HS4800™ microarray processing station (Tecan) (Masch A, et al., (2010) Antibody signatures defined by high-content peptide microarray analysis. Methods Mol Biol 669:161-172).
(§3) Microarrays were washed with 0.1% TWEEN®20 in 1× TBS followed by 0.05% TWEEN®20 in 0.1× SSC and dried in a stream of nitrogen. Each microarray was scanned using GENEPIX® Autoloader 4200AL (Molecular Devices, Pixel size: 10 μm). Signal intensities were evaluated using spot recognition software GENEPIX® Pro 7.0 analysis software (Molecular Devices). For each peptide, the mean signal intensity of the three triplicates was extracted. Further evaluation and representation of results was performed using the statistical computing and graphics software R (Version 2.11.1, www.r-project.org).
(§4) One array included peptides based on the thrombin sequence. Any peptide isolated from this library may reflect possible regions in the thrombin protein that may interact with the gamma loop. […] The fluorescence for the strongest binding candidates (hits) was quantified on an arbitrary scale of 0-65535 (2^16). Thrombin activity was assesed as described in Example 1.

thrombin [2] = biological target: T1, thrombin; assay: Peptide microarray binding with fluorescently labelled thrombin; settings: for Binding intensity of thrombin (100 μg/ml): DYLIGHT 650-Thrombin; for binding to thrombin (in words): fluorescent thrombin
Method: A screen was carried out to identify gamma loop mutants that may show improved binding to thrombin. This was carried out with fluorescent thrombin on an array of gamma loop peptide mutants. Three such cyclized peptides with the highest binding efficiency were tested for their capacity to stabilize thrombin without compromising thrombin activity towards fibrinogen (see Example 4 below).
as §2, with “The microarrays were incubated with 10 μg/ml DYLIGHT® 650-Thrombin or a Fluorescein-labeled” left out
as §3, §4

thrombin [3] = biological target: T1, thrombin; assay: Thrombin inhibition testing: clotting activity of 10 IU/ml thrombin towards fibrinogen in the presence of the additive; format: biochemical; settings: for inhibition of thrombin activity: 0.5 mM additive; for inhibition of thrombin activity / reduction/inhibition of thrombin activity: 10 IU/ml thrombin
Method: as §1
For inhibition testing, the clotting activity of 10 IU/ml thrombin was measured in the presence or absence of peptides.
The assay was carried out as described in Example 1.

| Compound | Binding intensity of gamma loop (gamma loop of thrombin) | Binding intensity of thrombin (100 μg/ml) (thrombin [2]) | stabilization of thrombin activity (in words) (thrombin [1]) | also measured |
| --- | --- | --- | --- | --- |
| SHNQRFVTYLGSKLG [Rnd_inter_155] | 19539 arbitrary units | 23646 | – | stabilization of thrombin activity (in words) (thrombin [1]; listed as SEQ ID NO:13): some stabilization effect; also recorded: capable of stabilizing liquid aqueous thrombin |
| KETWTANVGK [SEQ ID NO:1] | – | – | – | inhibition of thrombin activity (thrombin [3]): about 20% |
| N=C(N)NCCC[C@H](N)C(=O)O [arginine, arginine*HCl] | – | – | – | reduction/inhibition of thrombin activity (thrombin [3]; 0.5% (w/v) arginine): about 50%; reduction/inhibition of thrombin activity (thrombin [3]; 0.5% (w/v) arginine, listed as Arginine): 50%; reduction/inhibition of thrombin activity (thrombin [3]; 2% (w/v) arginine): > 95%; inhibition of thrombin (in words) (thrombin [3]; 3% (w/v) arginine, extrapolated from FIG. 2A): inhibit thrombin almost entirely; thrombin activity following storage (in words) (thrombin [1]; 0.5-5% (w/v) arginine, concentrated thrombin, up to 48 hours at 37° C.): maintained thrombin activity following storage; maintaining thrombin activity compared with 0.5 mM gamma loop peptide (in words) (thrombin [1]; 72 hours at 37° C.): not more effective; maintaining thrombin activity compared with 0.5 mM gamma loop peptide (in words) (thrombin [1]; 144 hours at 37° C.): only marginally so |
| RIRITDNMFSAGYKP [Thr_136_CS, thrombin derived peptide, Cysteine replaced by Serine] | 25278 arbitrary units | 5535 | least effective; also recorded: weaker stabilization effect | stabilization of thrombin activity (in words) (thrombin [1]; listed as SEQ ID NO:11): capable of stabilizing liquid aqueous thrombin; binding to thrombin (in words) (thrombin [2]): weakest fluorescent signal |
| CKNTWTANVGKC (disulfide 1-12 (inferred)) [SEQ ID NO:4, cyclized mutant gamma loop peptide] | – | – | inefficient | – |
| LGNKKFVSGSRFVST [Rnd_inter_316] | 26628 arbitrary units | 12353 | – | inhibition of thrombin activity (in words) (thrombin [3]; any concentration tested): absolutely no inhibition; stabilization of thrombin activity (in words) (thrombin [1]; listed as SEQ ID NO:12): some stabilization effect; also recorded: capable of stabilizing liquid aqueous thrombin |
| CKETWTANVGKC (disulfide 1-12 (inferred)) [SEQ ID NO:3, gamma loop peptide cyclized with terminal cysteine residues] | – | – | efficient stabilization of thrombin activity; also recorded: capable of stabilizing liquid aqueous thrombin | – |
| N=C(N)c1ccccc1 [Benzamidine] | – | – | – | inhibition of thrombin activity (thrombin [3]): 20% |
| WCYVAGKPGDFGYCD [Thr_069, thrombin derived peptide] | 50553 arbitrary units | 3141 | minimal effect on thrombin stability; also recorded: weaker stabilization effect | stabilization of thrombin activity (in words) (thrombin [1]; listed as SEQ ID NO:7): capable of stabilizing liquid aqueous thrombin; binding to thrombin (in words) (thrombin [2]): very weak binding to thrombin |
| ISMLEKIYIHPRYNW [Thr_111, thrombin derived peptide] | 32804 arbitrary units | 60199 | increased thrombin degradation; also recorded: destabilization effect | binding to thrombin (in words) (thrombin [2]): strongest interaction with thrombin |

Continued, in another order:

| Binding intensity of gamma loop (gamma loop of thrombin) | Binding intensity of thrombin (100 μg/ml) (thrombin [2]) | stabilization of thrombin activity (in words) (thrombin [1]) | Compound | also measured |
| --- | --- | --- | --- | --- |
| 40787 arbitrary units | 18537 | some stabilization effect | NITRSGIESQLWRSR [Thr_031_CS, thrombin derived peptide, Cysteine replaced by Serine] | stabilization of thrombin activity (in words) (thrombin [1]; listed as SEQ ID NO:9): capable of stabilizing liquid aqueous thrombin |
| 35117 arbitrary units | 15079 | some stabilization effect | SGIESQLWRSRYPHK [Thr_032_CS, thrombin derived peptide, Cysteine replaced by Serine] | stabilization of thrombin activity (in words) (thrombin [1]; listed as SEQ ID NO:10): capable of stabilizing liquid aqueous thrombin |
| – | – | inefficient | CKETWTANVLKC (disulfide 1-12 (inferred)) [SEQ ID NO:6, cyclized mutant gamma loop peptide] | – |
| – | – | inefficient | CKETWTAYVGKC (disulfide 1-12 (inferred)) [SEQ ID NO:5, cyclized mutant gamma loop peptide] | – |

Reference: patent US10435681B2, “Compounds and methods for stabilizing thrombin activity” (Omrix Biopharmaceuticals Ltd., priority 2013, dated 2019)
